Data published in patent publication US12161669 (UMC UTRECHT HOLDING B V, dated 2024).

Target: the molecule itself
Experiment: flow cytometry FRET between anti-CD277-PE (donor) and anti-CD277-DyLight 680 (acceptor) on HEK 293 cells, medium or pamidronate (ABP)

B1: CD277 (butyrophilin BTN3A1) expressed on cells (Daudi, HEK 293, EBV-LCL 48) (receptor)
chain: not shown
notes: whole, on cells; The anti-CD277 antibodies may also see other BTN3 isoforms; also called CD277J
  binding result: binds
